{"source": "patent US5756343", "about": "“Cell stress transcriptional factors” (The United States of America as represented by the …, dated 1992)", "key": {"[1]": {"target": "T1, Drosophila HSF expressed in Xenopus oocytes (Drosophila melanogaster) (UniProt P22813)", "T1 sequence": "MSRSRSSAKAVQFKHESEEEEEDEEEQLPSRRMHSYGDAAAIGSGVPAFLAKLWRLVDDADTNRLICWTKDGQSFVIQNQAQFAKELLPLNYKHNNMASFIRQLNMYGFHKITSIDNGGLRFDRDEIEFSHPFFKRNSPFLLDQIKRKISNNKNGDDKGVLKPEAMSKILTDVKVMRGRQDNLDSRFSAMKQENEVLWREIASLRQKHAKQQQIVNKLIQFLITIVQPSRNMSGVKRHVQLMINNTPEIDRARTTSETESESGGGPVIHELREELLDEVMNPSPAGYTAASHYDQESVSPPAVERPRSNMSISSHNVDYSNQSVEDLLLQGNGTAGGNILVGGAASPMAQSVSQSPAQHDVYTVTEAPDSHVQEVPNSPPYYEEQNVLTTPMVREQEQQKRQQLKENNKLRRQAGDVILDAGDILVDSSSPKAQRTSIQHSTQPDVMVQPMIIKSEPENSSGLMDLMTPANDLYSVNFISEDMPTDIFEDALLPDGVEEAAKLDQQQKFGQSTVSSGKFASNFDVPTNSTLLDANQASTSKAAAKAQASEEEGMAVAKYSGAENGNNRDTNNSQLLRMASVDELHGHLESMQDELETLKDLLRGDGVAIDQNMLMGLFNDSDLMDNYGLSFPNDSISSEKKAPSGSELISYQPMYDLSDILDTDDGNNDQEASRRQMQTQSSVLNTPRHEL", "assay": "EMSA", "settings": "oocytes 36 C 10 min vs 18 C"}, "[2]": {"target": "T2, Drosophila HSF full length (pHSF WT) (Drosophila melanogaster) (UniProt P22813)", "T2 sequence": "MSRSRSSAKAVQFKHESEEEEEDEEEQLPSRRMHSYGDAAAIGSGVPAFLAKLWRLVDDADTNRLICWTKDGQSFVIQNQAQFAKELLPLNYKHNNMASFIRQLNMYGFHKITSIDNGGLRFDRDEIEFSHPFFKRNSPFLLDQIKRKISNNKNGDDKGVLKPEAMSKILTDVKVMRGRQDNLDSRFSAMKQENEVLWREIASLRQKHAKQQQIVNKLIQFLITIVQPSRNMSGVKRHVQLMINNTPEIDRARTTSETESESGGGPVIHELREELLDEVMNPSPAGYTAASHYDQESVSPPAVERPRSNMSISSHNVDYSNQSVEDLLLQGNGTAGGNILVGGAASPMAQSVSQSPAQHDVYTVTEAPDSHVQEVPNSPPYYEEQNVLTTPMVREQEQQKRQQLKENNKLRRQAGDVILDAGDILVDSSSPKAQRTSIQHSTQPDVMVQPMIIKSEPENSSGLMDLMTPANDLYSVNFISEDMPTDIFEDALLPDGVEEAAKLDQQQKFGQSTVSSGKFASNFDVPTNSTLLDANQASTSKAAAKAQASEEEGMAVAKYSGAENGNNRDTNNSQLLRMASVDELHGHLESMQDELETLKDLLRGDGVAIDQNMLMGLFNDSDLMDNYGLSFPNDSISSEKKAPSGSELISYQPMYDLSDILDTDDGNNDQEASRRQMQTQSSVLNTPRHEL", "settings": "in vitro transcription, Drosophila embryo extract; scale: fold transcription vs template lacking HSEs"}, "[3]": {"target": "human HSF (HuHSF) (Homo sapiens) (UniProt Q00613)", "sequence (Q00613 whole entry)": "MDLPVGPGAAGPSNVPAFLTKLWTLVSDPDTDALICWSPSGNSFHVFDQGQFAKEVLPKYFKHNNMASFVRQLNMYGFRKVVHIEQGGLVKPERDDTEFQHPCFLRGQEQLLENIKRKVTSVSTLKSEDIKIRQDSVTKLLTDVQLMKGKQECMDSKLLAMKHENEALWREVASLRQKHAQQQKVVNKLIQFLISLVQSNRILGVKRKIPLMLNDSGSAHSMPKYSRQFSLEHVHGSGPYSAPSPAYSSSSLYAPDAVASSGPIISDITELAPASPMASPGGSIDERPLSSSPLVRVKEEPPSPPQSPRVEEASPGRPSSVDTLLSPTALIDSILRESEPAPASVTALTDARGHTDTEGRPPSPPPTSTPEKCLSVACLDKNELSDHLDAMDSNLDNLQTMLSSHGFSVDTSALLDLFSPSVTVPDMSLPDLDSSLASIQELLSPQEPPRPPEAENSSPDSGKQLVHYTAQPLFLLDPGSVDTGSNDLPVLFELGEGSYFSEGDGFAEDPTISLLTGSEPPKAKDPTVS", "settings": "in vitro transcription, Drosophila embryo extract"}, "[4]": {"target": "the molecule itself", "assay": "self-association: pore exclusion limit electrophoresis on a nondenaturing gradient gel, purified HSF from E. coli", "experimental": "The gel was stained with Coomassie Blue. […] (B) Pore exclusion limit analysis of the HSF:^32P-HSE complex. 3 µl of Drosophila SL-2 cell cytosol (lanes 1,2) and 0.5 µl of an extract *E. coli* expressing HSF (lanes 3,4) were heat shocked (+) in vitro at 34° C. or incubated at 0° C. (−) for 10 min. The samples were incubated for 10 min with ^32P-labeled HSE tinder standard gel shift conditions, and electrophoresed on a nondenaturing, 3–12% polyacrylamide gradient gel until the limit of migration. The gel was stained with Coomassie Blue, dried and subjected to autoradiography. The positions of marker proteins are indicated. (C) Glutaraldehyde cross-linking of cloned HSF. Purified HSF (2 µg/10 µl) was treated for 5 min at room temperature with glutaraldehyde as indicated. After quenching, about 1 µg of cross-linked HSF was separated on a 4–6% SDS polyacrylamide gel, and silver stained. The minor polypeptides below the 105 kD HSF protein probably represent degradation products. […] Cross-linked products were analyzed by SDS gel electrophoresis as above.\nEXAMPLE 5 Recombinant Drosophila HSF Expressed in *E. coli*. Associates as a Hexamer in Solution The apparent molecular mass of recombinant HSF, purified from *E. coli* extracts, was determined to be about 105 KD by SDS polyacrylamide gel electrophoresis (see FIG. 6)."}, "Drosophila HSF 1-163": {"target": "T3, Drosophila HSF 1-163 (Drosophila melanogaster, UniProt P22813 SEQ:1-163)", "T3 chain": "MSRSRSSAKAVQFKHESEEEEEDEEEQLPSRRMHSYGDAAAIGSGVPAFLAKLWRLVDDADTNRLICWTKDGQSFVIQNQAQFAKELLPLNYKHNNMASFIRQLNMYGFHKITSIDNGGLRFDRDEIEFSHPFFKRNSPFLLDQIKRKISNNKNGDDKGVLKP", "assay": "footprint; estimated from protein concentration for about 50% binding", "settings": "tags: E. coli BL21(DE3) extract; label: 32P 5' end", "experimental": "(§1) All numbers refer to amino acid positions. The open bars represent HSF coding sequences; the shaded regions A–D represent sequences conserved between Drosophila and yeast HSF. The solid boxes indicate the φ10 promoter (T_7), the Shine-Delgarno (SD) sequence, and the transcription terminator (T) of the expression vector. (B) SDS polyacrylamide gel analysis of wild-type and mutant HSF polypeptides. Mutants were expressed in BL21 (DE3) in the presence of ^35S-methionine (20 µCi/ml). 0.1 ml of culture was precipitated and the pellet was denatured at 100° C. in 10 µl of Laemmli sample buffer. Samples were electrophoresed on a 15% polyacrylamide gel and visualized by fluorography. The arrows pointing left indicate HSF polypeptides. A 26 kD protein (arrowhead) was also labeled in all samples, including *E. coli* transformed with the expression vector alone. (C) DNase I protection analysis of HSF mutants. A labeled fragment from the hsp70 promoter was incubated with the indicated amounts of wild-type or mutant HSF proteins. Footprinting reactions were performed essentially as described in FIG. 3C. Figure 7B: Figure 7C: […]"}, "Drosophila HSF 1-367": {"target": "T4, Drosophila HSF 1-367 (Drosophila melanogaster, UniProt P22813 SEQ:1-367)", "T4 chain": "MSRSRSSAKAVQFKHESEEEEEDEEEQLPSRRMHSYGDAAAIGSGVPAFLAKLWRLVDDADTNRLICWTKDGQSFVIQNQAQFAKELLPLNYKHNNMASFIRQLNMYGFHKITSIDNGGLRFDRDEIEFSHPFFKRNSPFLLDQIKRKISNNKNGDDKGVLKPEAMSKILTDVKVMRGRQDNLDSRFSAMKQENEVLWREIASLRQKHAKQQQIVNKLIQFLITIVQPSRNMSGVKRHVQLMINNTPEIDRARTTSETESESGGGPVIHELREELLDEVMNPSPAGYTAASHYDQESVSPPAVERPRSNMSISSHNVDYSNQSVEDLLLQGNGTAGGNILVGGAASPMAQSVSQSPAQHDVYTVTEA", "assay": "footprint", "settings": "tags: E. coli BL21(DE3) extract; label: 32P 5' end", "source_text": "as §1, with “Figure 7A: FIGS. 7A, 7B, and 7C represent the deletion analysis of HSF. (A) Schematic drawing of full-length HSF open reading frame (pHSF WT) and three deletion mutants PHSF 1-367, 1-241, and 1-163. All” for “All”"}, "Drosophila HSF 1-241": {"target": "T5, Drosophila HSF 1-241 (Drosophila melanogaster, UniProt P22813 SEQ:1-241)", "T5 chain": "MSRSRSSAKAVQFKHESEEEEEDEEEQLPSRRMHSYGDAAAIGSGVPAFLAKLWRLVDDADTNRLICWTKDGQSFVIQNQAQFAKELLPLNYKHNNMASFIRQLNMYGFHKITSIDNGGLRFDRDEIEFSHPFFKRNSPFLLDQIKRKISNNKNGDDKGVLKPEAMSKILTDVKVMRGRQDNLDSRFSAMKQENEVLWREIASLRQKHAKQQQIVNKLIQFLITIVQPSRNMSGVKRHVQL", "assay": "footprint", "settings": "tags: E. coli BL21(DE3) extract; label: 32P 5' end", "source_text": "as §1, with “Figure 7A: FIGS. 7A, 7B, and 7C represent the deletion analysis of HSF. (A) Schematic drawing of full-length HSF open reading frame (pHSF WT) and three deletion mutants PHSF 1-367, 1-241, and 1-163. All” for “All”"}}}
{"molecule": "synthetic HSE with three -GAA- repeats in alternating orientation", "values": [{"measurement": "binding signal (fold increase on heat shock)", "setting": "[1]", "result": 5}]}
{"molecule": "phsp70(-50)HSE2 template", "values": [{"measurement": "activity", "setting": "[2]", "result": 7}, {"measurement": "activity (fold transcription stimulation)", "setting": "[3]", "result": 6}]}
{"molecule": "recombinant Drosophila heat shock factor (HSF), full-length, expressed in E. coli (pHSFWT) or translated in vitro in rabbit reticulocyte lysate (other) MSRSRSSAKAVQFKHESEEEEEDEEEQLPSRRMHSYGDAAAIGSGVPAFLAKLWRLVDDADTNRLICWTKDGQSFVIQNQAQFAKELLPLNYKHNNMASFIRQLNMYGFHKITSIDNGGLRFDRDEIEFSHPFFKRNSPFLLDQIKRKISNNKNGDDKGVLKPEAMSKILTDVKVMRGRQDNLDSRFSAMKQENEVLWREIASLRQKHAKQQQIVNKLIQFLITIVQPSRNMSGVKRHVQLMINNTPEIDRARTTSETESESGGGPVIHELREELLDEVMNPSPAGYTAASHYDQESVSPPAVERPRSNMSISSHNVDYSNQSVEDLLLQGNGTAGGNILVGGAASPMAQSVSQSPAQHDVYTVTEAPDSHVQEVPNSPPYYEEQNVLTTPMVREQEQQKRQQLKENNKLRRQAGDVILDAGDILVDSSSPKAQRTSIQHSTQPDVMVQPMIIKSEPENSSGLMDLMTPANDLYSVNFISEDMPTDIFEDALLPDGVEEAAKLDQQQKFGQSTVSSGKFASNFDVPTNSTLLDANQASTSKAAAKAQASEEEGMAVAKYSGAENGNNRDTNNSQLLRMASVDELHGHLESMQDELETLKDLLRGDGVAIDQNMLMGLFNDSDLMDNYGLSFPNDSISSEKKAPSGSELISYQPMYDLSDILDTDDGNNDQEASRRQMQTQSSVLNTPRHEL", "values": [{"measurement": "binding result", "setting": "[4]", "result": "binds"}]}
{"molecule": "hsp70 promoter (-100 to +10 printed) (dsDNA) DNA 1: AAACGGCACACTGTTCTCGTTGCTTCGAGAGAGCGCGCCTCGAATGTTCGCGAAAAGAGCGCCGGAGTATAAATAGAGGCGCTTCGTCGACGGAGCGTCAATTCAATTCA DNA 2: TGAATTGAATTGACGCTCCGTCGACGAAGCGCCTCTATTTATACTCCGGCGCTCTTTTCGCGAACATTCGAGGCGCGCTCTCTCGAAGCAACGAGAACAGTGTGCCGTTT", "values": [{"measurement": "binding signal", "setting": "Drosophila HSF 1-163", "result": "50 fold lower affinity vs full length"}, {"measurement": "binding signal", "setting": "Drosophila HSF 1-367", "result": "≤ 2 fold difference vs full length"}, {"measurement": "binding signal", "setting": "Drosophila HSF 1-241", "result": "≤ 2 fold difference vs full length"}]}
